Test results as given in US20200165324A1.

Legend:
[1] = biological target: BG505 S364A; assay: ELISA, gp120 captured from lysed virions
[2] = biological target: BG505 G472A; assay: ELISA, gp120 captured from lysed virions
[3] = biological target: BG505 R476A; assay: ELISA, gp120 captured from lysed virions
[4] = biological target: BG505 L369A; assay: ELISA, gp120 captured from lysed virions
[5] = biological target: BG505 V371A; assay: ELISA, gp120 captured from lysed virions
[6] = biological target: BG505 K282A; assay: ELISA, gp120 captured from lysed virions
[7] = biological target: BG505 N197A; assay: ELISA, gp120 captured from lysed virions
[8] = biological target: BG505 G366A; assay: ELISA, gp120 captured from lysed virions
[9] = biological target: BG505 L179A; assay: ELISA, gp120 captured from lysed virions
[10] = biological target: BG505 N279A; assay: ELISA, gp120 captured from lysed virions
[11] = biological target: JR-CSF N283A; assay: ELISA, gp120 captured from lysed virions
[12] = biological target: BG505 N332T; assay: ELISA, gp120 captured from lysed virions
[13] = biological target: BG505 G367A; assay: ELISA, gp120 captured from lysed virions
[14] = biological target: BG505 gp120 captured from lysed virions (HIV isolate BG505); assay: ELISA, gp120 captured from lysed virions
[15] = biological target: BG505 T373A; assay: ELISA, gp120 captured from lysed virions
[16] = biological target: BG505 N363A; assay: ELISA, gp120 captured from lysed virions
[17] = biological target: BG505 T372A; assay: ELISA, gp120 captured from lysed virions
[18] = biological target: JR-CSF T373A; assay: ELISA, gp120 captured from lysed virions
[19] = biological target: BG505 E370A; assay: ELISA, gp120 captured from lysed virions
[20] = biological target: JR-CSF V371A; assay: ELISA, gp120 captured from lysed virions
[21] = biological target: JR-CSF N362A; assay: ELISA, gp120 captured from lysed virions
[22] = biological target: BG505 S365A; assay: ELISA, gp120 captured from lysed virions
[23] = biological target: BG505 K121A; assay: ELISA, gp120 captured from lysed virions
[24] = biological target: JR-CSF E370A; assay: ELISA, gp120 captured from lysed virions
[25] = biological target: JR-CSF D368A; assay: ELISA, gp120 captured from lysed virions
[26] = biological target: JR-CSF G471A; assay: ELISA, gp120 captured from lysed virions
[27] = biological target: JR-CSF G366A; assay: ELISA, gp120 captured from lysed virions
[28] = biological target: JR-CSF N279A; assay: ELISA, gp120 captured from lysed virions
[29] = biological target: JR-CSF S365A; assay: ELISA, gp120 captured from lysed virions
[30] = biological target: JR-CSF T198A; assay: ELISA, gp120 captured from lysed virions
[31] = biological target: JR-CSF T372A; assay: ELISA, gp120 captured from lysed virions
[32] = biological target: JR-CSF G472A; assay: ELISA, gp120 captured from lysed virions
[33] = biological target: JR-CSF gp120 captured from lysed virions (HIV isolate JR-CSF) (UniProt P20871); assay: ELISA, gp120 captured from lysed virions
[34] = biological target: JR-CSF S199A; assay: ELISA, gp120 captured from lysed virions
[35] = biological target: JR-CSF N276A; assay: ELISA, gp120 captured from lysed virions
[36] = biological target: JR-CSF N262A; assay: ELISA, gp120 captured from lysed virions
[37] = biological target: JR-CSF G473A; assay: ELISA, gp120 captured from lysed virions
[38] = biological target: BG505 N283A; assay: ELISA, gp120 captured from lysed virions
[39] = biological target: JR-CSF R476A; assay: ELISA, gp120 captured from lysed virions
[40] = biological target: JR-CSF K207A; assay: ELISA, gp120 captured from lysed virions
[41] = biological target: BG505 G471A; assay: ELISA, gp120 captured from lysed virions
[42] = biological target: BG505 R476A
[43] = biological target: BG505 L369A
[44] = biological target: BG505 D474A
[45] = biological target: BG505 K282A
[46] = biological target: BG505 N279A
[47] = biological target: JR-CSF N283A
[48] = biological target: JR-CSF S365A
[49] = biological target: JR-CSF Env on JR-CSF pseudovirus
[50] = biological target: JR-CSF T198A
[51] = biological target: BG505 N332T
[52] = biological target: JR-CSF S199A
[53] = biological target: JR-CSF N276A
[54] = biological target: BG505 T373A
[55] = biological target: BG505 N363A
[56] = biological target: BG505 T372A
[57] = biological target: JR-CSF R476A
[58] = biological target: BG505 G471A
[59] = biological target: JR-CSF N362A
[60] = biological target: BG505 K121A
[61] = biological target: gp120 (isolate 92BR020) (HIV-1 isolate 92BR020); assay: ELISA on gp120 (isolate 92BR020), buffer pH 6
[62] = biological target: JR-CSF M373A
[63] = biological target: BG505 S364A
[64] = biological target: JR-CSF D474A
[65] = biological target: BG505 L179A
[66] = biological target: BG505 N262A
[67] = biological target: JR-CSF G471A
[68] = biological target: JR-CSF P369A
[69] = biological target: BG505 N276A
[70] = biological target: JR-CSF D279A
[71] = biological target: BG505 Env on BG505 pseudovirus (HIV isolate BG505)
[72] = biological target: JR-CSF K207A
[73] = biological target: JR-CSF K282A
[74] = biological target: BG505 S365A
[75] = biological target: JR-CSF V372A
[76] = biological target: gp120 (isolate 92BR020) (HIV-1 isolate 92BR020); assay: ELISA on gp120 (isolate 92BR020), buffer pH 5.5

VRC01 (antibody)
EC50 [1]: 0.4 µg/mL | EC50 [2]: 0.9 µg/mL | EC50 [3]: 0.5 µg/mL | EC50 [4]: 1.6 µg/mL | EC50 [5]: 1.3 µg/mL | EC50 [6]: 0.6 µg/mL | EC50 [7]: 0.4 µg/mL | EC50 [8]: 0.7 µg/mL | EC50 [9]: 0.6 µg/mL | EC50 [10]: 25.4 µg/mL | EC50 [11]: 0.348 µg/mL | EC50 [12]: 0.2 µg/mL | EC50 [13]: 9.4 µg/mL | EC50 [14]: 0.2 µg/mL | EC50 [15]: 0.5 µg/mL | EC50 [16]: 0.9 µg/mL | EC50 [17]: 0.4 µg/mL | EC50 [18]: 0.456 µg/mL | EC50 [19]: 1.1 µg/mL | EC50 [20]: 1.62 µg/mL | EC50 [21]: 0.327 µg/mL | EC50 [22]: 1.4 µg/mL | EC50 [23]: 0.7 µg/mL

PGT121 (antibody)
EC50 [2]: 1.4 µg/mL | EC50 [24]: 0.933 µg/mL | EC50 [25]: 0.942 µg/mL | EC50 [3]: 1 µg/mL | EC50 [5]: 1.4 µg/mL | EC50 [6]: 1.3 µg/mL | EC50 [7]: 1.3 µg/mL | EC50 [8]: 0.9 µg/mL | EC50 [9]: 0.5 µg/mL | EC50 [26]: 0.619 µg/mL | EC50 [27]: 0.489 µg/mL | EC50 [28]: 0.535 µg/mL | EC50 [11]: 0.615 µg/mL | EC50 [29]: 0.935 µg/mL | EC50 [30]: 0.604 µg/mL | EC50 [13]: 4 µg/mL | EC50 [31]: 0.698 µg/mL | EC50 [32]: 0.664 µg/mL | EC50 [33]: 1.33 µg/mL | EC50 [34]: 1.91 µg/mL | EC50 [35]: 1.25 µg/mL | EC50 [16]: 2.3 µg/mL | EC50 [36]: 0.947 µg/mL | EC50 [18]: 0.643 µg/mL | EC50 [37]: 0.46 µg/mL | EC50 [38]: 3.4 µg/mL | EC50 [39]: 0.984 µg/mL | EC50 [40]: 0.437 µg/mL | EC50 [41]: 2.5 µg/mL | EC50 [21]: 0.747 µg/mL | EC50 [23]: 1 µg/mL | IC50, pseudovirus neutralization [42]: 0.02 µg/mL | IC50, pseudovirus neutralization [43]: 0.021 µg/mL | IC50, pseudovirus neutralization [44]: 0.023 µg/mL | IC50, pseudovirus neutralization [45]: 0.009 µg/mL | IC50, pseudovirus neutralization [46]: 0.02 µg/mL | IC50, pseudovirus neutralization [47]: 0.017 µg/mL | IC50, pseudovirus neutralization [48]: 0.026 µg/mL | IC50, pseudovirus neutralization [49]: 0.028 µg/mL | IC50, pseudovirus neutralization [50]: 0.046 µg/mL | IC50, pseudovirus neutralization [51]: 0.019 µg/mL | IC50, pseudovirus neutralization [52]: 0.03 µg/mL | IC50, pseudovirus neutralization [53]: 0.033 µg/mL | IC50, pseudovirus neutralization [54]: 0.017 µg/mL | IC50, pseudovirus neutralization [55]: 0.026 µg/mL | IC50, pseudovirus neutralization [56]: 0.019 µg/mL | IC50, pseudovirus neutralization [57]: 0.014 µg/mL | IC50, pseudovirus neutralization [58]: 0.014 µg/mL | IC50, pseudovirus neutralization [59]: 0.026 µg/mL | IC50, pseudovirus neutralization [60]: 0.026 µg/mL

12A12 (antibody)
EC50 (read off the curve) [61]: 0.4 µg/mL | IC50, pseudovirus neutralization [62]: 0.134 µg/mL | IC50, pseudovirus neutralization [63]: 0.032 µg/mL | IC50, pseudovirus neutralization [42]: 0.026 µg/mL | IC50, pseudovirus neutralization [43]: 0.03 µg/mL | IC50, pseudovirus neutralization [44]: 0.02 µg/mL | IC50, pseudovirus neutralization [45]: 0.04 µg/mL | IC50, pseudovirus neutralization [64]: 0.075 µg/mL | IC50, pseudovirus neutralization [65]: 0.056 µg/mL | IC50, pseudovirus neutralization [66]: 0.017 µg/mL | IC50, pseudovirus neutralization [46]: 0.058 µg/mL | IC50, pseudovirus neutralization [67]: 0.114 µg/mL | IC50, pseudovirus neutralization [68]: 0.205 µg/mL | IC50, pseudovirus neutralization [69]: 0.003 µg/mL | IC50, pseudovirus neutralization [47]: 0.219 µg/mL | IC50, pseudovirus neutralization [48]: 0.18 µg/mL | IC50, pseudovirus neutralization [49]: 0.219 µg/mL | IC50, pseudovirus neutralization [50]: 0.622 µg/mL | IC50, pseudovirus neutralization [51]: 0.031 µg/mL | IC50, pseudovirus neutralization [52]: 0.032 µg/mL | IC50, pseudovirus neutralization [53]: 2.72 µg/mL | IC50, pseudovirus neutralization [54]: 0.039 µg/mL | IC50, pseudovirus neutralization [55]: 0.038 µg/mL | IC50, pseudovirus neutralization [56]: 0.037 µg/mL | IC50, pseudovirus neutralization [70]: > 50 µg/mL | IC50, pseudovirus neutralization [71]: 0.02 µg/mL | IC50, pseudovirus neutralization [57]: 0.082 µg/mL | IC50, pseudovirus neutralization [72]: 0.383 µg/mL | IC50, pseudovirus neutralization [58]: 0.029 µg/mL | IC50, pseudovirus neutralization [59]: 0.11 µg/mL | IC50, pseudovirus neutralization [73]: 2.33 µg/mL | IC50, pseudovirus neutralization [74]: 0.057 µg/mL | IC50, pseudovirus neutralization [60]: 0.053 µg/mL | IC50, pseudovirus neutralization [75]: 0.214 µg/mL | EC50 (read off the curve) [76]: 0.4 µg/mL
